{
  "source": "paper doi:10.1101/2023.07.12.548734",
  "target": "CrtSPARTA (heterodimeric TIR-APAZ/short pAgo complex from Crenotalea thermophila) (Crenotalea thermophila)",
  "assay": "cryo-EM structure",
  "data": [
    {"substance": "CrtSPARTA (heterodimeric TIR-APAZ/short pAgo complex from Crenotalea thermophila)", "values": [
      {"measurement": "stoichiometry N (heterodimers in the assembly (octamer))", "result": 4},
      {"measurement": "stoichiometry N (heterodimers in the assembly (tetramer))", "result": 2}
    ]}
  ]
}
